Results taken from patent publication US12391751B2, “Antibody against advanced glycation end products and use thereof” (Bloom Technology Corporation, priority 2018, dated 2025).

B1: PB-1: mouse monoclonal antibody raised against A-peak-BSA; heavy-chain variable region SEQ ID NO 18, light-chain variable region SEQ ID NO 22 (antibody, listed as Mus musculus, V domains shown)
VH: EVRLQQSGPELVKPGTSVKISCKASGYSFTGYYMHWVKQSPVKSLEWIGRIIPYNGATSYNQNFKDKASLTVDKSSRTAYMDLHSLTSEDSAVYYCARSRYYGRAPYYFDYWGQGTTLTVSS
VL: DVVVTQTPLSLPVSLGDQASISCRSSQSIVHSNGNTYLEWYLQKPGQSPKLLIYKVSNRFSGVPDRISGSGSGTDFTLKISRVEAGDLGVYSCFQGSHVPFTFGSGTKLEIK
B2: SJ-5: mouse monoclonal antibody raised against GAL13-MSA; heavy-chain variable region SEQ ID NO 4, light-chain variable region SEQ ID NO 8 (antibody, listed as Mus musculus, V domains shown)
VH: EVMLVESGGRLVKPGGSLKLSCAASGFTFSSYGMSWVRQTPEKRLEWVATISGGGSYTYYPDSVKGRFTISRDNVKNNLYLQMSSLRSEDTALYYCARRGAYGDYGWFAYWGQGTLVTVSA
VL: DIVLTQSPATLSVTPGDSVSLSCRASQSINNNLHWYQQKSHESPRLLIKCASQSISGIPSRFSGSGSGTDFTLSINSVETEDFGMYFCQQSNSWPLTFGAGTKLELK

Tests used:
Format in all cases: binding
Fru-AGEs-BSA = Fru-AGEs-BSA (Bos taurus, UniProt P02769); assay: Specificity of PB-1 by competitive ELISA (Example 30); settings: A-peak-BSA or Glycer-AGEs-BSA immobilized, competitor 10 μg/mL, PB-1 0.05 μg/mL
Description: (§1) A-peak-BSA or Glycer-AGEs-BSA prepared into a concentration of 1 μg/mL with a coating solution (Example 13) was added at 100 μL/well to a 96-well microtiter plate (Costar) and immobilized overnight at 4° C.
(§2) The plate was washed three times with PBS containing 0.05% (v/v) Tween 20 (PBS-T) and then blocked with PBS-T containing 0.5% (w/v) gelatin for 1 hour.
(§3) Bovine serum albumin (BSA), BSA containing AGEs derived from glucose (Glu-AGEs-BSA), BSA containing AGEs derived from fructose (Fru-AGEs-BSA), BSA containing AGEs derived from glycolaldehyde (Glycol-AGEs-BSA), BSA containing AGEs derived from glyceraldehyde (Glycer-AGEs-BSA), BSA containing NE-carboxyethyllysine (CEL-AGEs-BSA), BSA containing NE-carboxymethyllysine (CML-AGEs-BSA), BSA containing AGEs derived from glyoxal (GO-AGEs-BSA), BSA containing AGEs derived from methylglyoxal (MGO-AGEs-BSA), and A-peak-BSA diluted into 10 μg/mL with PBS-T containing 0.1% (w/v) gelatin were each added at 50 μL/well to the antigen-immobilized plate, and the PB-1 antibody diluted into 0.05 μg/mL with PBS-T containing 0.1% (w/v) gelatin was further added at 50 μL/well, stirred with a plate mixer, and then left standing at room temperature for 1 hour.
(§4) After washing, peroxidase-labeled anti-mouse IgG (H+L) polyclonal antibody, F(ab′)2 fragment (Kirkegaard & Perry Laboratories, Inc.) diluted into 0.05 μg/mL with PBS-T containing 0.1% (w/v) gelatin was added at 100 μL/well and left standing at room temperature for 1 hour.
(§5) After washing, ELISA POD substrate TMB kit (Nacalai Tesque, Inc.) was added at 100 μL/well and left standing at room temperature in the dark. Ten minutes later, color development was terminated by the addition of 2 N sulfuric acid (50 μL/well). Absorbance was measured at a dominant wavelength of 450 nm and a sub-wavelength of 650 nm with a microplate reader (Cytation 5, BioTek Instrument Inc.), and the absorbance at the sub-wavelength was subtracted from the absorbance at the dominant wavelength.
(§6) The ordinate of the graph depicts change in absorbance relative to that of control BSA defined as 1. When A-peak-BSA and Glycer-AGEs-BSA were immobilized, the novel monoclonal antibody PB-1 was also positive to Glycol-AGEs-BSA, Glycer-AGEs-BSA, and A-peak-BSA and negative to Glu-AGEs-BSA, Fru-AGEs-BSA, CEL-AGEs-BSA, CML-AGEs-BSA, GO-AGEs-BSA, and MGO-AGEs-BSA in terms of specificity.

Glycer-AGEs-BSA = Glycer-AGEs-BSA (Bos taurus, UniProt P02769); assay: as above; settings: A-peak-BSA or Glycer-AGEs-BSA immobilized, competitor 10 μg/mL, PB-1 0.05 μg/mL
Description: as §1, §2, §3, §4, §5, §6

[1] = Reactivity of SJ-5 with Lys-hydroxy-triosidine by competitive ELISA (Example 18); settings: immobilized Glycer-AGEs-BSA
Description: A solution of BSA containing AGEs derived from glyceraldehyde (stock solution: 10 mg/mL PBS solution) prepared into 1 μg/mL in a coating solution was added at 100 μL/well to a 96-well microtiter plate (COSTAR) and incubated overnight at 4° C.
Each well after the immobilization treatment was washed three times with a washing solution (300 μL), and a blocking solution (200 μL) was added thereto and left at room temperature for 1 hour.
GAL691 (prepared in Example 16) and Lys-hydroxy-triosidine (prepared in Example 17) were each dissolved in a phosphate buffer solution (0.2 M, pH 7.4) to prepare a 10 mg/mL solution. Sample solutions of 2-fold dilution series from 0.625 to 10 mg/ml (5 points) were further prepared by dilution with a diluting solution. Dilution solutions were also prepared from a blank solution containing no sample in the same way as above. […]
Absorbance was measured at a dominant wavelength of 450 nm and a sub-wavelength of 650 nm with a microplate reader (Cytation 5, BioTek Instrument Inc.), and the absorbance at the sub-wavelength was subtracted from the absorbance at the dominant wavelength. Change in the absorbance of GAL691 and Lys-hydroxy-triosidine was indicated as relative values to the absorbance of the blank solution.

Sequence of Glycer-AGEs-BSA (P02769 25-607): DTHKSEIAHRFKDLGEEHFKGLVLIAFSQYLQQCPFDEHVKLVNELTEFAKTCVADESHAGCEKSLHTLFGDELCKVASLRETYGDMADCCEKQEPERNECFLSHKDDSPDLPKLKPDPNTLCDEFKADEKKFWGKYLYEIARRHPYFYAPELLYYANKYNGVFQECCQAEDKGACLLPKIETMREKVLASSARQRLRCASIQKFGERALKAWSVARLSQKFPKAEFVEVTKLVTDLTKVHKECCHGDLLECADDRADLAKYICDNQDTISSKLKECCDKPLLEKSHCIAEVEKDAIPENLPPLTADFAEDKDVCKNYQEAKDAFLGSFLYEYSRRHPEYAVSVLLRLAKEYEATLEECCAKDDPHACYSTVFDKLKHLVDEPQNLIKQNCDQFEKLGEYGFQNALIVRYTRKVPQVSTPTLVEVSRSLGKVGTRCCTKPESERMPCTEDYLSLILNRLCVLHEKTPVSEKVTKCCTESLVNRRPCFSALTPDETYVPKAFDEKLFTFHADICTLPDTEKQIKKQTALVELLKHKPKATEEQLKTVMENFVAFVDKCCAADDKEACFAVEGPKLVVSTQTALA
Sequence of Fru-AGEs-BSA (P02769 25-607): as above

| Molecule | specificity: reactivity with Fru-AGEs-BSA (Fru-AGEs-BSA) | specificity: reactivity with Glycer-AGEs-BSA (Glycer-AGEs-BSA) | recognition of Lys-hydroxy-triosidine [1] |
| --- | --- | --- | --- |
| B1 | negative | positive | – |
| B2 | – | – | does not recognize |
